Among the data in a protein production outcome set (Wang et al. 2014) are protein production values, retold here.

The data set can be described thus: label from the status in PepcDB records.
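Further: failed if final PepcDB status was selected cloned or expressed and not failed if soluble or beyond.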

As for “MLFFADRSPFVRPLSGYAPVTPAAPRSTGSAAAPPPSPAVLDDRSGTEGDVTPMMAQYLAVKAAHPDCLLFYRMGDFYEMFFEDAVKAAETLDIALTKRGRHAGADIPMCGVPIHSHEGYLSRLIRAGIKVAICEQMEDPAEARRQRGYKAVVRRDVIRVVTAGTLTEDELLDARAHNYLAAVVRLRDAVGMAWVDVSTGDLVAQPLAEADIGPALARLAPGEVLMPEKLAGDPALREILAPLAGRISPLPASRFDSENARKRVEGLFGVKALDGFGGFGRAEVAAIGALIDYVELTQVGRLPRLSPPRRLSLGAILEIDGATRRNLELTETLGGGRKGSLLARIDCTVTGAGARLLAERLAAPLTDPAQIGARLDGVGFLVSAERVRGDLRDTLRGCPDIARALSRLSLGRGGPRDLAAIGEALSRIPALRVLVVGAGLGEPPTELTAALIDLGSHEGLVDLLGRALDADLPLLARDGGFIRPGYDAGLDELRALRDEGRRLIAGLQARYASETAIPALKIKHNNVLGYFIEVAAGRADKLMAAGGPFLHRQTLASQVRFTTVELSELEDKIRGAADKALALEQALFATLCAEVLGCAADIARAANGLACLDVAAALADLAARERYARPVVDNSTAFRIHKGRHPVVEAALADQAGPAFVANDCDLAPDQRLWLLTGPNMAGKSTFLRQNALIAVLAQMGSFVPAESAEIGVIDRLFSRVGAADDLARGRSTFMVEMVETAAILNQATERSLVILDEIGRGTATYDGLSIAWATVESLHDATRCRALFATHYHELTALASRLDRLSCHTLRIKEWKDQVVFLHEVGPGAADRSYGIHVAKLAGLPAAVIARAEQVLAILEKGDASSAATRLADDLPLFAAARPRAGLPTPPPGPHPLAEALNAINPDEMTPREALDALYRLKAVMKRE”, the protein production result was “failed”.
Take “MLFIKPADLREIVTFPLFSDLVQCGFPSPAADYVEQRIDLNQLLIQHPSATYFVKASGDSMIDGGISDGDLLIVDSAITASHGDIVIAAVDGEFTVKKLQLRPTVQLIPMNSAYSPITISSEDTLDVFGVVIHVVKAMR”: the protein production result is “failed”.
For the sequence “MLFISATNTNAGKTTCARLLAQYCNACGVKTILLKPIETGVNDAINHSSDAHLFLQDNRLLDRSLTLKDISFYRYHKVSAPLIAQQEEDPNAPIDTDNLTQRLHNFTKTYDLVIVEGAGGLCVPITLEENMLDFALKLKAKMLLISHDNLGLINDCLLNDFLLKSHQLDYKIAINLKGNNTAFHSISLPYIELFNTRSNNPIVIFQQSLKVLMSFALK”, the protein production entry is reported as “not failed”.
With “MLFNKMKNYKGFTAVKELWLLNLFILSVFTLSFSVSAASNDVSINNNELIGISYNTIQSDQIVVVFSFTKNITSLPIVKTSMTPAFVEVTFDANTYGKDLTETLINHAGIKGINLDAKTGKVVALISLEKLAVFDVSLNNEKEFSITFNYGESAEIVETLSPAGDDFINSIESIDFRLNGDNEGQILVYLKDSMLAADVNDKLGKLNVEFHNTEIIDDLLYKLDVTDFGTLVTSIETFKEGRNARLVIDVESGFIFTQKQEENLFILTVKKKPEKAPTYLGDTDDFTGRSISLSFQDIPVRTVLQIIADYNEFNLIISDTVTGNITLRLDGVPWDQALSIILKVKGLDKRMQGNILMVAPSDELAAREAQSLQAKQQVEELATLYSEYLQINYAKAAEFSELIKNEDTSILSDRGSVSVDERTNTLLIRDTAKSIEDIKRMITILDVPVRQVVIEARMVTVKDNMNEELGIRWGVTNTDGEFATSGSIEGASSANGTRGVTTPGVGQVPTIGDGLNVNLPVANAAGTIAFQVARLANGTILDLELSALEKENKGEVIASPRITTANQKEAYIEQGVEIPYQEAASSGATATQFKKAVLSLTVTPHITPDDKIILDLVVTQDTISDITSGFAPAIDTQRIGTQVLVNNGETIVLGGIYQQAIISTVSKIPILGDIPYLGWLFRNSSQLNEKKELLIFVTPRIVTEHF” the entry was “failed”; with “MLFNSFEFMLLFLPIAVIGYFLLQKVNKNFAKLFLVGMSLYFYAYFEVKYLLLIGVSLFTNAFIGQQIIQKINQKTRKVFLIVGLVFNISLLGYFKYSDFFLDNINTLFGTDVPLLKLLLPLGISFITFQKIGFLVDCYKRELTKFNFIDFCLFVTFFPQLIAGPIVHHSKVLPQFQDESKRRPNIENITKGLYIFGIGLTKKVVIADSLAQWADFGFSNVNQLSTTDAWVSSLAYTLQLYFDFSGYCDMAIGAALLFNIILPINFFSPYKSLSIQDFWRRWHMTLGRFFTQYVYIPLGGSRKGQIRTYLNLFTIFLISGIWHGAGWTFVIWGVLHGLAIVIHRLFKNLGGKMPKFIAWILTMGFVHVTWVFFRATSVEDALTMLNRMFNVNYLHIQTALIQFRPETLTGVSIMDNLIYSICNLFPFQVTGDHFNFQTILYLAIGIAIVLFTKNSIEKLESFRPKPIYALALASMFILSLMYLNRVSSFLYFNF”, “failed”; with “MLFSSIVFLFYFFPAVLLLYYICSFSRRLQNVVLLFASLVFYAWGDFSFLGIMIVSIIINYILGLLVGKFREKKLLAKFFIFVTCAYNLGMLFVFKYLGFVVKNIDKVGNYKLSIPNIALPIGISYFTFKAISYVVDVYKNKVEAEKNPLNIGLYIAFFPEVISGPISRYVKVGEQIKNREHSWQKFSVGACRFITGLGKKVLISNSVSIIADKVFTMNTNGPVPVTLAWLGSIAYTIQIFFDFSGYSDMVIGLGLMFGFKIDENFNYPYISKSITEFWRRWHISLSSWFRDYIYIPLGGSRVDNKDKLIRNLFIVWVSTGVWHGAEWTFIMWGFLNFVFIALEKVFSFDDLKINPVIKHIYALFIINLGWVLFRSENLIQAGKYVACMFGLRGNAFWSNYTFMFVKENAVIFIAAVILSMPIAKKVNKLVYDKVPGYKILNGVYPIAVLGVFFVCISYLIKGTYNPFIYLKF”, “failed”.
Take “MLFTMMVSLYTSRVVLATLGVEDFGIYNVVGGVVTMFAIISTSLSSAISRFITIELGKGDLRRLKTVFSTAVVIQFLMALVVVILAELIGVWFLNNKMNIPEVRMNAANWVLQFSIFTFGVNLICIPFNALIIAHERMSAFAYVSILEVSLKLLIVYLLVLMSVDKLIVYGALLLVVAIVITFAYFIYCRRHFKECKCFCRIDRFLLKRMLSFSGWNFIGASSAILRDQGVNIAINLFCGPTVNAARGMAVQVNHAINSFAQNFMTALNPQITKSFAVGDSKYMFTLIFQGARLSFYMLLFLSLPVLMSTEYILSIWLKIVPDYTIIFVRLVLIFAMCESISNPLITAMLATGSIRNYQIVVGGMQMMNFPISYILLERGYAPEITLYVAIGISLCCLALRLFMLRSMIQLPVRSYMKNVFFNICAVTIFSVAIPYLISLRLQSSFYSFLILSFSCIICSFMAIFFVGCKASERVFVVDQVRKLIKNNL”: the protein production result is recorded as “failed”.
As for “MLFTNLDGVRNVVPVGHRQRRARPVGAGDVRAEKSLRYHLQEHGRLPLNEAVAVLSDVAEALADLKDREIVHRDLKPENILLLGGRRCLADFGIARYAEATIAKHTLKLAGTLAYMAPERWNNQRAASASDIYAPGVVAYELLEETPPFTGPYEHDYHDQHLHGPVRPSPQLRPSWRR”, the protein production result was “failed”.
Turning to “MLGELDLATVILMQKCSYIVGLLSFIYLKMSNRGLPGPVHLAAGFAAMTVGSTLAGYGEWKILSPALWELGSVLFGIAGYALIWLGLKTLSDGRFVNRKTILFTCLVALLAIGVALQVAGNNTFRAALFNGCAALAYLGGAGVLFARWRKEPLLSRLALGAITGVSGLISLAVMKSVLFPGYASINLVTAFFFIIMLNFAISLFVMMLVAERSERKLLVLANTDPLTGVKNRRFFFQTMPAAPDPADAAMLLDIDHFKSINDRFGHAVGDSVLQEVARRISGSIRGGDVLARYGGEEFIIFLPGAGVDKACMIGERIRDAVAINEVDCGGLRVGVTISIGVATTGDMRCDLQMLAEKADRALYRAKTEGRNCVREALAA”, the protein production entry is “failed”.
The result for “MLGGQYYLIAFILAVIVVWFTTPLINHWGRRAGYVDQPSARKMHHRPMVRLGGVSIFLGSLVALLVVWNLGAFGAMSTKGEWEVWGVVLGGLAFFGIGLFDDLFDLSPFSRLLAQVAIASVVWNMGVRIDFFTLPFLGNLVYLNILSLPITVIWLVGLANAINWIDGLDGLAAGVCGIAAVVLFVLCLFMEQSEAALIAAALAGGALGFLRYNFNPAQIFMGDGGAYFMGFTLGAVAVIGLVKVAAMATVAVTAVLLPYLVLAVPILDMSVVILSRVIKGKSPFKADKGHLHHRLINAGISHRLTVLFIYALTLWAGSLALGFSNIPSGWGFAIGATVLLIYLGWQVWRNSRNVGEQD” reads “failed”.
For the sequence “MLGSQCAASEPVPAHSLWRGQDMSPNMRGALLMTGSMAAFTCNDTVVKLLGSEMPLFQILVLRSGLSAVWIYFLARRLGALHLRFGRRDRMLVALRCLSEIGATYFFLTALLNMPLANVTAVLQMLPLTVTLGAALFFGEQVGWRRMLAIGLGFCGMLLIVRPGPDGFTLHAIYAMAAVICVTARDLVTRRMSSHVPSLTVTLATALSVMSFGLVGSLTVDWVPLTTDLGLGLLAASLLVLGGYLFSVMVMRIGEVGFVAPFRYSSLLWALVLGWLVFGDWPDPLTMAGVALVVATGLFTLFRERASRHRG”, the protein production entry is “failed”.
The result for “MLGYAAMNRTLRERDPPRRCNRDMQKKTWESEGIEYAATLAAQNFEDLREILLWNRDHGIDFYRCSSKLVPWNSQFDITALPNYERVQSLAAECGALVQDNDMRLTFHPSHWCKLASESDDTVARSVESVEHHGRWLDLMGVPRSPRYAINVHIGAHYGDKAATADRFCDVVSDLAPRARDRLTVENDDTESLWSVQELVTDVASQVDIPVTFDYHHHSFTDRGLTYREGFELARETWDGARPITHYSEPARLRPDSDASPQAHADHVAAVPTWL” reads “failed”; that for “MLHFQHTSIINAPPEVVWKFHERPDILQLLTPPWQPVRVVRREGGLEVGAITEFKLFLGPVPLTWLARHTECDKYRLFTDTQISGPFESWIHRHQFQPENGKTKLIDDVSYVMPGGETIEFIGGWLIQAQLEAMFRYRHYVTKRECE”, “failed”; that for “MLHKVVQVRLYPSIEQKVQLAQAFGCSRWWWNYALNKSIETYKETGKGLTRAALNALLPNLKKAEDTCWLADCYSQVLQATTLNLTTAYKNFFEKRAGFPKFKSKHGKQSIQYPQNVKIVDGESSPVRAASRREGGFPSVGNWRSRSVSEGFTRKGNIKLPGNIGIVKAKIHRPIEGKIKTVTVSKTPSGKYLASILTEVEGVSTPLNTSEKPAITEGKIYGIDLGLKHFAVVSDGEKISKYDNPKHLAKHEKNLKRKQKKLARKVKGSNSRNRYRKVVAKVYERVSNSRQDFLHKLSYKLVSDSQAVIVENLHLLGMVRNHKLAKSISDAGWGMFTNFLAYKLERKGGKLVEIDRWFPSSKLCSNCFYQIGEMPLDVREWTCPSCGTHHDRDGNAAINIRAEGIRMIKAEGSAVSAVGGEVSPKLGRKSKFGHSPVITEADTVLGTPSQCG”, “failed”.
Take “MLHSTAGWKNMDFKRFSLLIATRTILAMLTLIFLTQAIMSDGYHATVLLLSAVLLIQFFEITRFISKTNAELVRFFEAVRHADFSQRFELKSLGTGFDELGSTFTDILKRIQRVRSNQEAELRHIKAIIEHVPVPLLSIDHNGKITLWNNSVRRLFGTNAVTHIDDMAQFNEDFPKKLQSILAGERTLVHITIDDMEHKLIISATEITTATQQETLLSMQDIQSELALAQLQAWQDLVSVLTHEIMNSITPVASLAKTAVDLVQDVQEKTRTLPAITNEITEELDDVLGAVKTVARRSDGLMQFVTSYRRLTRLPSPNKKTISVATIFDHVTTLAKQNWQKDNIELTASITPQALDIHVDPDMIEQILLNLLLNAEHALITTAGVIEKKNSTPKIALNAFLNVRGHVIIEVADNGKGIENKNMTQIFVPFFTTKKEGSGVGLALTRQVMLAHNGKVAVRNNSQGGATFSLTF”: the protein production result is “failed”.
In the case of “MLHTEKVEYVNQAHEDITGIARDKSIGTNLRDLTFFRQHNALAEQTLAKIFRGDQAKGEVQFSRTDGSRYWLKYIVSQFITDRGNHYALVSGEENSDEHNYKAELEHHHHHH”, the protein production entry was “not failed”.
